The source of these data is patent US20210032312A1 (Janssen / Centocor, published 2021).

In assay [1] the target is T1, cynomolgus monkey CD8A on cyno CD8+ T cells (cynomolgus monkey, UniProt P01732 23-235 (human entry)).
T1 construct: also called cyno T-cells; Cyno CD8alpha
As to the kind of experiment: flow cytometry on cyno CD8+ T cells. On the procedure: (§1) A full dose response binding curve was generated for the nineteen selected anti-CD8A FN3 domains. Each candidate was diluted to 20 μM in PBS followed by a 1:3 dilution series to generate either an 11-point or an 18-point dose response curve. Human or cyno CD8+ T cells were incubated with the diluted FN3 domain for 1 hour at 4° C. Cells were washed once with PBS and incubated with an anti-centyrin antibody (PAB25) for 1 hour at 4° C. The cells were washed twice with PBS, followed by incubation with a PE-secondary, anti-CD3-PacB, anti-CD4-APC, and a viability dye. Finally, cells were washed and resuspended in PBS for flow cytometric analysis using a BD Canto Instrument. CD8 T cells were defined as live CD3+CD4− cells. Median fluorescence intensity of the bound Centyrins (PE channel) and % of cells showing positive staining calculated using Cytobank software. Results were graphed using Prism and EC₅₀ values were calculated using the 4 parameter dose response variable slope equation.

For assay [2], the target named is T2, human CD8A on primary human CD8+ T cells (human, UniProt P01732 22-235).
T2 construct: whole, on cells; also called Human T-cells; CD8 alpha
In words: flow cytometry on human CD8+ T cells. On the procedure: as §1
On the technique in general: A flow cytometer gives signals particle by particle.

Assay [3] deals with T2, human CD8A on primary human CD8+ T cells. As to the kind of experiment: MSD-CAT equilibrium cell binding, primary human CD8 T cells. On the procedure:
A MesoScale Discovery-Cell Affinity Technology (MSD-CAT) based equilibrium cell-binding assay was performed to determine the affinity of the top six anti-CD8A candidates binding to primary human cytotoxic T cell surface CD8A receptors. Each anti-CD8A FN3 domain at a constant concentration of […] was pre-incubated with 10 different concentrations of primary cytotoxic CD8 T cells (columns 2-11 in a row). Cell viability was checked prior to the binding measurements and a >85% viability was desired for valid analysis. Since these cells were from different donors, in case of donor-to-donor variations, only cells of the same donors were combined together. Each individual anti-CD8A FN3 domain binding was measured in replicates using cells from the same donors. Cells and FN3 domains were incubated overnight at 4° C. on a rotator to reach equilibrium. Following the incubation the cells were spun down along with cell bound anti-CD8A FN3 domains and the unbound (free) anti-CD8A FN3 domains in the supernatants is quantified using MSD assays where biotinylated recombinant hCD8A-Fc protein was captured at 0.6 ug/mL in assay buffer to streptavidin MSD plates overnight ˜16 hours at 4° C. After blocking the plate, supernatant with free anti-CD8A FN3 domains was added to the plate and incubated for 1 hr, then followed by SulfoTag pAb139 (In-house) detection at 1.6 ug/ml. A buffer control without any FN3 domain and hCD8A (plate background binding control) in column 1 and FN3 domain alone control without hCD8A (100% free/unbound) in column 12 were included. Mouse Anti-hCD8A mAb (mIgG1k, BD Biosciences, cat #555364, clone RPA-T8) was included as a positive control. Tencon27 was included in the initial assay validation as a negative control and no significant binding was observed, and therefore, was not included in the later cell binding due to the cell availability. Plates were read immediately on the MSD Sector Imager 6000™ Reader for luminescence levels after adding MSD Read Buffer by diluting 1:4 of stock into H2O.
Raw MSD data were exported and analysed in Prism using a non-linear fit with variable slope function to derive the Bmax and Hillslope values. Only those with converged Bmax values and hillslope within the range of −1.5˜−0.5 (ideal −1.0) will be considered for further analysis.

For assay [4], the target named is T3, human CD8A-Fc (recombinant human CD8 alpha fused to Fc fragment of human IgG1) (human, UniProt P01732 22-182, limits assumed).
T3 construct: SPR ligand, captured by goat anti-human Fc; also called hCD8A-Fc; recombinant CD8 alpha; not shown: linker with flag (and polyhistidine) tag and Fc fragment of human IgG1; depends on which of the two constructs was used
As to the kind of experiment: SPR, dissociation rate on recombinant CD8 alpha. (Surface plasmon resonance follows binding to a sensor surface in real time, without labels.)

The target of assay [5] is T3, human CD8A-Fc (recombinant human CD8 …). As to the kind of experiment: SPR (ProteOn), captured hCD8A-Fc, heterogeneous ligand fit, lower affinity population. On the procedure:
(§2) Human CD8A-Fc was then captured at five surface densities ranging from 200 to 1200 response units, leaving the 6th channel as empty channel control for GAH-Fc IgG surface. Binding was measured by flowing five different concentrations of anti-CD8A FN3 domains (1 μM diluted in a 3-fold dilution series) as analytes simultaneously in the horizontal orientation over the captured hCD8A-Fc surfaces, with a sixth analyte channel containing only running buffer PBST. All interactions were measured at 100 uL/min flow rate with association and dissociation times being 4, 30 minutes respectively. […] Data analyses were performed using Bio-Rad ProteOn Manager software (version 3.1.0.6). Raw data were double referenced by subtraction of the interspot (empty chip surface, no protein immobilized or captured) signals to correct the non-specific binding of the FN3 domain to the pre-coated GAH-Fc IgG surface, followed by a double referencing using the buffer blank response (to correct for any baseline drift resulting from ligand dissociation over time). […] Given that the GAH-Fc capture of hCD8A-Fc format is the least disruptive relative to other formats in introducing potential experimental artifacts (such as ligand activity loss and/or artificial eptiopes/heterogeneous ligand population due to amine coupling), it is considered that the results from the GAH-Fc capture experiments reported here represent the most reliable ProteOn SPR data, despite the non-conforming 1:1 Langmuir fits observed in many instances. A heterogeneous ligand model was chosen to fit the data assuming two different ligand species, either due to the heterogeneity in the ligand protein population or due to potential different mechanisms for each FN3 domain binding to the 2 hCD8A monomers in the Fc fusion protein.

Assay [6] has the same target. In words: SPR (ProteOn), captured hCD8A-Fc, heterogeneous ligand fit, higher affinity population. On the procedure: as §2
For assay [7] the target is unchanged. In words: SPR (ProteOn), captured hCD8A-Fc, heterogeneous ligand fit, lower affinity population; lower affinity population, heterogeneous ligand fit. On the procedure: Human CD8A-Fc was then captured at five surface densities ranging from 200 to 1200 response units, leaving the 6th channel as empty channel control for GAH-Fc IgG surface. Binding was measured by flowing five different concentrations of anti-CD8A FN3 domains (1 μM diluted in a 3-fold dilution series) as analytes simultaneously in the horizontal orientation over the captured hCD8A-Fc surfaces, with a sixth analyte channel containing only running buffer PBST. All interactions were measured at 100 uL/min flow rate with association and dissociation times being 4, 30 minutes respectively. […] Data analyses were performed using Bio-Rad ProteOn Manager software (version 3.1.0.6). Raw data were double referenced by subtraction of the interspot (empty chip surface, no protein immobilized or captured) signals to correct the non-specific binding of the FN3 domain to the pre-coated GAH-Fc IgG surface, followed by a double referencing using the buffer blank response (to correct for any baseline drift resulting from ligand dissociation over time). […]

The target of the next assay is T4, human CD8A on cells (human, UniProt P01732 22-235).
T4 construct: whole, on cells; also called CD8A receptors on primary human cytotoxic T cells
As to the kind of experiment: MSD-CAT equilibrium cell-binding assay on primary human cytotoxic CD8 T cells. On the procedure: A MesoScale Discovery-Cell Affinity Technology (MSD-CAT) based equilibrium cell-binding assay was performed to determine the affinity of the top six anti-CD8A candidates binding to primary human cytotoxic T cell surface CD8A receptors. Each anti-CD8A FN3 domain at a constant concentration of […] was pre-incubated with 10 different concentrations of primary cytotoxic CD8 T cells (columns 2-11 in a row). Cell viability was checked prior to the binding measurements and a >85% viability was desired for valid analysis. Since these cells were from different donors, in case of donor-to-donor variations, only cells of the same donors were combined together. Each individual anti-CD8A FN3 domain binding was measured in replicates using cells from the same donors. […] Following the incubation the cells were spun down along with cell bound anti-CD8A FN3 domains and the unbound (free) anti-CD8A FN3 domains in the supernatants is quantified using MSD assays where biotinylated recombinant hCD8A-Fc protein was captured at 0.6 ug/mL in assay buffer to streptavidin MSD plates overnight ˜16 hours at 4° C. […] Plates were read immediately on the MSD Sector Imager 6000™ Reader for luminescence levels after adding MSD Read Buffer by diluting 1:4 of stock into H2O.
Raw MSD data were exported and analysed in Prism using a non-linear fit with variable slope function to derive the Bmax and Hillslope values. […]

T3 sequence (P01732 22-182 limits assumed): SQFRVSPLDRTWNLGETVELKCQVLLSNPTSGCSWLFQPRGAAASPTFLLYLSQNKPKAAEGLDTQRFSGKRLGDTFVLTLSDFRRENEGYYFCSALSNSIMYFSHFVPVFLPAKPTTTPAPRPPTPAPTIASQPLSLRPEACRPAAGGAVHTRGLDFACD
T2 sequence (P01732 22-235): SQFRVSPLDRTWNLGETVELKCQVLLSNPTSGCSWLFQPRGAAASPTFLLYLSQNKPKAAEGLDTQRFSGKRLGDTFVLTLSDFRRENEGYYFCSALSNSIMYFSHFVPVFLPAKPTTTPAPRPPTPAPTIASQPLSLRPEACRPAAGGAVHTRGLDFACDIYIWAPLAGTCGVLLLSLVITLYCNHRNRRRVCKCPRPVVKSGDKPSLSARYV
T1 sequence (P01732 other isoform, or with tags, fused parts or gaps limits assumed): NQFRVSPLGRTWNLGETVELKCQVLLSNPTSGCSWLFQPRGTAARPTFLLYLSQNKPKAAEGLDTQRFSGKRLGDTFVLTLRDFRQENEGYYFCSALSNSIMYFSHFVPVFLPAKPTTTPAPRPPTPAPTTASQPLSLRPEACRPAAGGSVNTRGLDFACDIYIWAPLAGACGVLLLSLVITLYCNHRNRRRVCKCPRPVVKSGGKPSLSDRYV
T4 sequence (P01732 22-235): as the sequence (P01732 22-235) above

B1: CD8S369 (designed binder)
chain: LPAPKNLVVSRVTEDSARLSWAKRPGAFDSFLIQYQESEKVGEAIVLTVPGSCRSYDLTGLKPGTEYTVSIYGVDVKYDIDSRPISSNPLSAIFTT
notes: P283AR9P1362_D6 with E54C; the entry holds the mutation
As a reminder, the EC50 is the concentration giving half of the maximal effect. Usually Kd stands for a measure of binding affinity in units of concentration. For B1, the EC50 is 72.3 nM in assay [1] and 124 nM in assay [2]. The molecule also showed a Kd in assay [3] of 2.81 nM.

B2: CD8S370 (designed binder)
chain: LPAPKNLVVSRVTEDSARLSWTAPDAAFDSFAITYIEKEHIEDGEAIVLTVPGSCRSYDLTGLKPGTEYWVPIWGVKGGANSWPLSAIFTT
notes: P282DR9P1359_G7 with E54C; the entry holds the mutation
For the molecule B2, the figures for the EC50 in assay [1] and in assay [2] were 67.6 nM and 209 nM, respectively. In assay [3], this molecule gave a Kd of 0.869 nM.

B3: P282DR9P1359_F5 (designed binder)
chain: LPAPKNLVVSRVTEDSARLSWTAPDAAFDSFQIAYPEWPPPGEAIVLTVPGSERSYDLTGLKPGTEYFVIIQGVKGGVESWPLSAIFTT
notes: FN3 domain (Centyrin); purified as His-tagged protein, tag not in the entry
As a reminder, the koff is the first-order rate constant of dissociation. In general, kon refers to a measure of how fast the partners come together. B3: the koff was found to be 5.78e-05 s⁻¹ in assay [4], 6.6e-05 s⁻¹ in assay [5] and 1.42e-05 s⁻¹ in assay [6]. The values for the kon in assay [5] and in assay [6] were 34800 M⁻¹ s⁻¹ and 380000 M⁻¹ s⁻¹, respectively. For the same molecule, the values for the Kd in assay [6] and in assay [7] were 0.04 nM and 6.6 nM, respectively.

B4: Tencon27 (designed binder)
chain: LPAPKNLVVSRVTEDSARLSWTAPDAAFDSFLIQYQESEKVGEAIVLTVPGSERSYDLTGLKPGTEYTVSIYGVKGGHRSNPLSAIFTT
notes: negative control scaffold; also called Stabilized Tencon
Regarding B4, in the assay with human CD8A on cells, the binding result is reported as “no binding”.
